Assay [1] concerns the target human TRAIL (TNFSF10, Adipogen) (human, UniProt P50591 95-281, limits assumed). The assay is described as follows: indirect ELISA, cytokine coated. (In general: An ELISA detects its analyte on a solid surface through an enzyme-linked reagent.)
Assay [2] addresses human TNFα (TNFSF2; Adipogen) (human, UniProt P01375 85-233, limits assumed). The assay is described as follows: indirect ELISA, cytokine coated.
Assay [3] addresses human BAFF (TNFSF13B, AB Biosciences) (human, UniProt Q9Y275 134-285, limits assumed). Put plainly: indirect ELISA, cytokine coated.
For assay [4], the target named is T1, human RANKL (TNFSF11; Adipogen) (human, UniProt O14788 152-317, limits assumed).
T1 sequence (looked up): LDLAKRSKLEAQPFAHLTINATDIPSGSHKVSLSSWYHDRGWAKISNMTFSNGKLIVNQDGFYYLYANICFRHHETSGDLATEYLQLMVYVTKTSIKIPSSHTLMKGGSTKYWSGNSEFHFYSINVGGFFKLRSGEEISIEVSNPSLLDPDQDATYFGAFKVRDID
Put plainly: indirect ELISA, cytokine coated.

Assay [5] addresses mouse BAFF (TNFSF13B, Adipogen) (mouse, UniProt Q9WU72 127-309, limits assumed). The assay is described as follows: indirect ELISA, cytokine coated.
Assay [6] has as its target T2, human Tweak (TNFSF12; Abcam) (human, UniProt O43508 94-249, limits assumed).
T2 sequence (looked up): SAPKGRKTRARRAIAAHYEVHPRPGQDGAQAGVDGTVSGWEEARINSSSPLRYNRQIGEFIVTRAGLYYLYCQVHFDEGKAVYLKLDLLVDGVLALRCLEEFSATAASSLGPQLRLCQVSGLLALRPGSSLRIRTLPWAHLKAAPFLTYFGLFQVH
Put plainly: indirect ELISA, cytokine coated.

Assay [7] addresses T3, HA-GCN4 hAPRIL (amino acid residues 105-250) (human, UniProt O75888 105-250).
T3 construct: Bought (R&D Systems); also called HA-tagged GCN4 human APRIL; HA-GCN4-huAPRIL; not shown: N-terminal HA tag; GCN4 isoleucine zipper oligomerization domain
T3 sequence: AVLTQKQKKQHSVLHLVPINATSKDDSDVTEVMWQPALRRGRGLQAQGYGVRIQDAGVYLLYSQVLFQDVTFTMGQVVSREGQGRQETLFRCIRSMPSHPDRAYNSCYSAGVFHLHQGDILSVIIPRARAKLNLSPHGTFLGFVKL
The assay is described as follows: blocking ELISA; blocked: human APRIL binding to human BCMA-Fc. Details: concentration or dose not given beside the values.

Assay [8] has as its target T4, HA-GCN4 mAPRIL (amino acid residues 96-241) (mouse, UniProt Q9D777 96-241, Assembles as a homotrimer through the GCN4 zipper; one protomer is given.).
T4 construct: Bought (R&D Systems); also called HA-tagged mouse APRIL (R&D Systems); recombinant mouse APRIL; not shown: N-terminal HA tag and GCN4 isoleucine-zipper trimerisation domain, with any linker, of the bought R&D Systems protein
T4 sequence: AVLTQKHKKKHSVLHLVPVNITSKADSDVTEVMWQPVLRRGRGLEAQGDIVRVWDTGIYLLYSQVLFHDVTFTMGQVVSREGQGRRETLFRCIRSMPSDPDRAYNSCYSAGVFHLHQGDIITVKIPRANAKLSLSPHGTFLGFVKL
Put plainly: blocking ELISA; blocked: mouse APRIL binding to BCMA.

Assay [9] deals with T3, HA-GCN4 hAPRIL (amino acid residues …). Put plainly: blocking ELISA, 4-parameter fit; blocked: human APRIL binding to human TACI-Fc.

Chain of human TNFα (TNFSF2; Adipogen) (P01375 85-233 limits assumed): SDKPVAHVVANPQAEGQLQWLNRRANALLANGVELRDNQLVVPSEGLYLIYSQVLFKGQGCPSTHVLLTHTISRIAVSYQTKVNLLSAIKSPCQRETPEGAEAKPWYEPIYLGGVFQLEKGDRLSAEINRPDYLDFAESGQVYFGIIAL
Chain of human BAFF (TNFSF13B, AB Biosciences) (Q9Y275 134-285 limits assumed): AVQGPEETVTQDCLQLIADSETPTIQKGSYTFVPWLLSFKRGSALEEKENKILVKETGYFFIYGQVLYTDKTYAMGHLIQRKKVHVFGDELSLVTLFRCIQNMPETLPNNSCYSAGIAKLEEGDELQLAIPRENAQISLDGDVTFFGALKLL
Chain of human TRAIL (TNFSF10, Adipogen) (P50591 95-281 limits assumed): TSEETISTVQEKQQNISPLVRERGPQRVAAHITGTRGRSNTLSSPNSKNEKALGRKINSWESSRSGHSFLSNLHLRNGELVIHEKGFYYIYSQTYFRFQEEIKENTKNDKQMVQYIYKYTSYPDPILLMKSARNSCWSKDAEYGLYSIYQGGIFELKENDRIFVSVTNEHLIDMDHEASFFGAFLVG
Chain of mouse BAFF (TNFSF13B, Adipogen) (Q9WU72 127-309 limits assumed): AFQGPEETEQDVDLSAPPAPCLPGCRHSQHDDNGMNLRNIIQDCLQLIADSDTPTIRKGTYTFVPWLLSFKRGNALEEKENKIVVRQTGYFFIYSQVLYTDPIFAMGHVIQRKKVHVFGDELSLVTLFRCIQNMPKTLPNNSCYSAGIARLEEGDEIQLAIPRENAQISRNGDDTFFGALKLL

B1: monoclonal antibody 3530 (antibody, mouse IgG2, V domains shown)
VH: QVQLQQSGAELVRPGASVKLSCKASGYTFTDHEMHWVRQTPVHGLEWIGVIDPDTGDTTYNQKFKGKATLTADKSSSTAYMDLRSLTSEDSAVFYCTRWTGGDYWGHGTTLTVSS
VL: DAVMTQTPLSLSVTIGQPASISCKSSQSLLYSDGKTYLNWFQQRPGQSPKRLMYQVSKLDPGIPDRFSGSGSETDFTLKISRVEAEDLGVYYCLQGTYYPYTFGSGTKLEIK
By % Inhibition is commonly meant how much of the control response was suppressed. One may read the IC50 as the concentration that inhibits the measured activity by half. Take B1: the binding result in assay [1], in assay [2], in assay [3], in assay [4], in assay [5] and in assay [6] was “no binding (tested: 10 µg/ml (p-1128))” each time. Besides, the “% Inhibition” value in assay [7] came out at 35%. The “IC50 (read off the curve)” value in [8] is around 0.3 µg/mL. In assay [9], this molecule returned a half-inhibitory concentration (IC50) of 4.95 nM.

Values taken from patent publication US20170145086A1 (VISTERRA, published 2017).
